In article PMC11998489:

Assays:
Experiment in all cases: split reporter (BiFC, NanoBiT); mCherry BiFC (Nm and Cm fusions) in Sf9 cells transfected with a pair of plasmids (2 ug/well each); 36 h p.t.; epifluorescence microscopy; percentage of fluorescent cells in each field
[1] = target: Hse1 (BiFC fusion) (S. frugiperda)
[2] = target: Vps25 (BiFC fusion) (S. frugiperda)
[3] = target: Vps27 (BiFC fusion) (S. frugiperda)
[4] = target: Vps36 (BiFC fusion) (S. frugiperda)

Chm7 (BiFC fusion) (natural protein)
percentage of fluorescent cells in BiFC [1]: 5%

Tsg101 (BiFC fusion) (natural protein)
percentage of fluorescent cells in BiFC [2]: 5%
percentage of fluorescent cells in BiFC [3]: 5%

Vps28 (BiFC fusion) (natural protein)
percentage of fluorescent cells in BiFC [4]: 5%

Vps2B (BiFC fusion) (natural protein)
percentage of fluorescent cells in BiFC [1]: 5%
